The source of these data is patent US5661003A, “Water channel” (Marumo; Fumiaki, priority 1992, dated 1997).

In assay [1] the target is T1, WCH-1 water channel (Rattus norvegicus, UniProt P34080).
T1 construct: The longest open reading frame encodes a 271-amino acid protein (Mr 28928); expressed in transfected cells; host or cells: Xenopus laevis oocytes injected with cRNA transcribed from WCH-1 in pSPORT
T1 sequence (P34080 1-271): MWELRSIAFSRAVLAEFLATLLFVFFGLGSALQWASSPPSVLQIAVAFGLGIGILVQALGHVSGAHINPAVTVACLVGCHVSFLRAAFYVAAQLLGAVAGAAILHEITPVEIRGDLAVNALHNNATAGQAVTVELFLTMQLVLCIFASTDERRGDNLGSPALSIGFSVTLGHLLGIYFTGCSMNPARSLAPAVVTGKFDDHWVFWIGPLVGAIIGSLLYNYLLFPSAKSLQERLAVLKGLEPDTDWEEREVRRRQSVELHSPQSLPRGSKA
Description: Effect of mercurial sulfhydryl reagent and reducing agent on Pf of WCH-1-injected oocytes. It counts as cell-based. As for the experimental part: (§1) Capped cRNA was synthesized from WCH-1 in pSPORT vector using T7 RNA polymerase after linearization of the pSPORT vector. Oocytes were obtained from female Xenopus laevis and prepared as described in Dascal, N. CRC Crit. Rev. Biochem. 22, 317-373 (1987), then injected with […] or 20 ng of WCH-1 RNA (1 μg/μL) and incubated at 18° C. […] Oocytes were viewed by light transmitted through an Olympus phase-contrast microscope and imaged on a Hamamatsu SIT camera connected to ARGUS-200 image processing system. Images were obtained and stored at 20-s intervals.
(§2) Osmotic water permeability (Pf) was determined from an initial slope of a time curve of V/Vo (d (V/Vo)/dt), initial oocyte volume (Vo =9×10^-4 cm^3), initial oocyte surface area (S=0.045 cm^2), the molar volume of water (Vw =18 cm^3 /mol) by:
(§3) Pf=[Vo×d (V/Vo)/dt]/[S×Vw ×(osmin
To examine the effects of mercurial sulfhydryl reagents, oocytes were incubated in Barth's buffer containing 0.3 mM HgCl2 for 5 minutes prior to Pf measurements. The recovery of the inhibition by reducing agents was examined by 15 minutes incubation in a Barth's buffer containing 5 mM β-mercaptoethanol following 5-minute incubation in HgCl2.

Assay [2] deals with Xenopus oocytes. Description: Osmotic water permeability of Xenopus oocytes injected with WCH-1 RNA (videomicroscopy of osmotic volume increase). In kind it is cell-based, Xenopus laevis. As to the method:
To determine the osmic water permeability of oocytes injected with the WCH-1 transcript, volume increase caused by an imposed osmotic gradient was measured using videomicroscopy (Zhang, R. & Verkman, A. S. Am. J. Physiol. 260, C26-C34 (1991)).
as §1
Oocytes images were processed as described in Zhang, R. & Verkman, A. S. Am. J. Physiol. 260, C26-C34 (1991) and the projection area of the oocytes was calculated by automatic summation. Relative volume (V/Vo) was calculated from the area at time 0 (Ao) and at time t (A) by:
as §2, §3

For `[Cl][Hg][Cl]` [HgCl2], the “Pf in WCH-1-injected oocytes after incubation in HgCl2” value in assay [1] (0.3 mM HgCl2, five minutes, Pf without HgCl2 83.9±18.2) is reported as 44.5±3.6 ×10^-4 cm/sec. Consider `OCCS` [B-mercaptoethanol, β-mercaptoethanol], for which the “Pf in WCH-1-injected oocytes after recovery with reducing agent” value in assay [1] (5 mM mercaptoethanol for 15 minutes following incubation in 0.3 mM HgCl2) is reported as 63.1±25.8 ×10^-4 cm/sec.

B1: WCH-1: vasopressin-regulated water channel localized in the kidney collecting tubule; expressed in oocytes by injection of its capped cRNA (protein, UniProt P34080 1-271, looked up)
Aquaporin-2: T1 sequence (P34080 1-271)
For B1, the “Pf in WCH-1-injected oocytes relative to Pf in water-injected oocytes” value in assay [2] (WCH-1-injected vs water-injected oocytes) came out at 3.5 times. In addition, in assay [2] (oocytes injected with 20 ng WCH-1 RNA, 24 h incubation, transfer from 200 mOsm to 70 mOsm Barth's buffer, 24° C., mean±SEM), the “Osmotic water permeability (Pf)” value is given as 83.9±18.2 ×10^-4 cm/s. The “Oocytes ruptured after transfer into the hypotonic solution” value in assay [2] (within 10 minutes, none of water-injected oocytes ruptured for more than 60 minutes) was “ten out of eleven”.
